Source: patent US20210388081A1 (Memorial Sloan Kettering, published 2021)

T1: FcRL2, overexpressed on 3T3 cells (UniProt Q96LA5 20-508, limits assumed)
T1 construct: whole, on cells
T1 sequence (looked up): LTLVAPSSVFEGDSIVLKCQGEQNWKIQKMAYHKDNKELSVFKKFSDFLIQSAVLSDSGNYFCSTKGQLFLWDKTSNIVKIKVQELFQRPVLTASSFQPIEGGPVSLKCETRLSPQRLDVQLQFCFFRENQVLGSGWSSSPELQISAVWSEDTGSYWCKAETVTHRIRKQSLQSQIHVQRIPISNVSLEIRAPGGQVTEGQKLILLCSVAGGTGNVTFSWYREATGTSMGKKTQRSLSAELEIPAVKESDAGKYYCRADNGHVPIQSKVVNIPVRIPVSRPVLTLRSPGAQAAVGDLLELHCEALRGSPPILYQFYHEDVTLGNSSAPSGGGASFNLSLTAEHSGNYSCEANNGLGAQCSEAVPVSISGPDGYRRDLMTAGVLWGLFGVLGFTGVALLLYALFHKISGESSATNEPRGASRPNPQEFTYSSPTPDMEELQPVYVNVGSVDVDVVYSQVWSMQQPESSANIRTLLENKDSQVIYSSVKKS

T2: Fc Receptor-like 5 (FcRL5), full length, overexpressed on 3T3 or Raji cells (human, UniProt Q96RD9 16-977)
T2 construct: also called 3T3-FcRL5
T2 sequence: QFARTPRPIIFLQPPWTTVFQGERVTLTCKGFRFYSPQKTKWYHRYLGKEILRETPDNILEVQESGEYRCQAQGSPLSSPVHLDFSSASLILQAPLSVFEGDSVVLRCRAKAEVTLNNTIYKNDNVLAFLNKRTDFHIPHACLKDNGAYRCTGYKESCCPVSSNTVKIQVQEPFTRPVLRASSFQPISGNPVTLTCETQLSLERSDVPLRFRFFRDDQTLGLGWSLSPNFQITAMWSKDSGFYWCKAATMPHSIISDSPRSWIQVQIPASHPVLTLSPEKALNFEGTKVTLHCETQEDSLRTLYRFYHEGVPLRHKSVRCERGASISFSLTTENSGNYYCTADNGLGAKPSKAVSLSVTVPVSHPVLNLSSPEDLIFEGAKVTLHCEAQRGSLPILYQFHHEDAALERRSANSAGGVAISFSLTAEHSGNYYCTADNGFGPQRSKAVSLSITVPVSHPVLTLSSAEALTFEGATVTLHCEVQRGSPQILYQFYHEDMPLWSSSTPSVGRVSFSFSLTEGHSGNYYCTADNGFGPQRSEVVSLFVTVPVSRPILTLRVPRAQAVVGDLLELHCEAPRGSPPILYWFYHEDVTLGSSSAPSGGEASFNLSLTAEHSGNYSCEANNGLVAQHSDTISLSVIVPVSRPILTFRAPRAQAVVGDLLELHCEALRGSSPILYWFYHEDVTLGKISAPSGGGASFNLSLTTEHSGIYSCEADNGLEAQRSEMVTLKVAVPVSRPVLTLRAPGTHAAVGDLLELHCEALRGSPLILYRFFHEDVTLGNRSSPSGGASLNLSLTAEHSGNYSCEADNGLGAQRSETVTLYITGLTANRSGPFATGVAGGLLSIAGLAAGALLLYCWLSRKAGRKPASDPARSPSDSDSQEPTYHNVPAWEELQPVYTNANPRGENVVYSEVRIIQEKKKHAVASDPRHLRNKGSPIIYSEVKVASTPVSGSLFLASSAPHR

B1: ET200-124 (scFv)
scFv: SYVLTQPPSVSVAPGKTARISCGGNDIGSKSVFWYQQRPGQAPVLVVYDDSDRPSGLPERFSGFNSGNTATLTISRVEAGDEADYYCQVWDSSSDHYVFGTGTKVTVLGSRGGGGSGGGGSGGGGSLEMAQVQLVESGGGLVQPGRSLRLSCAASGFTFDDYAMHWVRQAPGKGLEWVSGISWNSGSIGYADSVKGRFTISRDNAKNSLYLQMNSLRAEDTALYYCAKDITYGSGSYGAFDIWGQGTMVTVSSTSGQAGQHHHHHHGAYPYDVPDYAS
notes: screened as phage clone; entry is VL-linker-VH-His tag-HA tag
B2: ET200-010 (scFv)
scFv: QSALTQPASVSGSPGQSITISCTGTSSDVGGYNSVSWYQQHPGKAPRLMIYDVSNRPSGVSNRFSGSKSGNTASLTISGLQAEDEADYYCSSYTSSSTPLVFGTGTKVTVLGSRGGGGSGGGGSGGGGSLEMAQVQLVQSGAEVKKPGASVKVSCKASGYTFTSYGISWVRQAPGQGLEWMGWISAYNGNTNYAQKLQGRVTMTTDTSTSTAYMELRSLRSDDTAVYYCARGAVAYHDWGQGTLVTVSSTSGQAGQHHHHHHGAYPYDVPDYAS
notes: as for B1
B3: ET200-009 (scFv)
scFv: QSVLTQPPSASGTPGQTVTISCSGSNSNIGSNYVYWYQQLPGTAPKLLIYRNNQRPSGVPDRFSGSKSGTSASLAISGLRSEDEADYYCAAWDDSLSAYVFGTGTKVTVLGSRGGGGSGGGGSGGGGSLEMAQVQLVQSGAEVKKPGASVKVSCKASGYTFTSYGISWVRQAPGQGLEWMGWISAYNGNTNYAQKLQGRVTMTTDTSTSTAYMELRSLRSDDTAVYYCARSSGNMVSWKDMWGQGTLVTVSSTSGQAGQHHHHHHGAYPYDVPDYAS
notes: as for B1

How the values were obtained:
[1] = target: T1, FcRL2, overexpressed on 3T3 cells; test: phage clone on 3T3-FcRL2 cells
SLAMF9 protein = SLAMF9 protein (UniProt Q96A28 19-236, limits assumed); test: phage clone on SLAMF9 protein
[2] = target: T2, Fc Receptor-like 5 (FcRL5), full …; test: phage clone screening on cells
In short: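 scFv phage clones were incubated with live 3T3 cells overexpressing full-length FcRL5, then detected with mouse anti-M13 mAb and PE-anti-mouse Ig by flow cytometry. 3T3 cells expressing FcRL1, 2, 3, 4 or 6 served as negative-control targets.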

SLAMF9 protein, sequence (Q96A28 19-236 limits assumed): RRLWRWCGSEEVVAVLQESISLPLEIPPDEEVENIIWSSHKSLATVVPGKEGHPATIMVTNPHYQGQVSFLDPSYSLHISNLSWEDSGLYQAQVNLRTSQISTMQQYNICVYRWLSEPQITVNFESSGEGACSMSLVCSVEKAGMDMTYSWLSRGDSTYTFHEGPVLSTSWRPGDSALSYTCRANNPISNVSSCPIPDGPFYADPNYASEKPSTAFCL

Binder | binding result [1] | binding result (SLAMF9 protein) | binding result [2]
B1 | no binding | no binding | binds
B2 | no binding | no binding | binds
B3 | no binding | no binding | binds
